This note sets out measurements from the NTF2 design screens of Basanta et al. (2020).

A short description of the series: protease stability score; higher = more stable; yeast display proteolysis, trypsin and chymotrypsin.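 Also: relative to predicted unfolded state with 0 unfolded-like and 1 meaning tenfold more protease.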
As for “SEEEKLTREFAEMWRHTIETGDEEEMWRMADPNVRVDFDGKELHGRELFQEHFRKLGVDHFIVRRIHVQGEKLRIDGSHIYNGQHIHTELISQKVNGRWIIDQVKVH”, the protease stability score was determined as 1.36. “SEEEKLWHEIIRRILHSWDTGDEDTLNELIDPNARLIIDVNGRIIRRHGWEEMHEFIEKVRRDLGADHVHFDHINIQGNKVETDVTIEIGDKKMRSHLIIIVIDGQIHELKIIHR”: the protease stability score was determined as 1.83.

“SEEEKMVEYAIRLIDSLIRTGDERVLMSLLDPHAKMDVNGKDLIGREFLKHWTHQYKNVKLRDIKVKDAEVQGDKIRIHVELEIEFNGRRDSRDETWYIDKFDGRWLVEEIRVK” gave a protease stability score of 1.15. In turn, “SEEEKNARDFLRLIFNHVHTGDFRHMSKLFDPHVRIQIGDKVFHGREEAERVWLEWRVEDIKIRHIDIQGDKLIVDTEVHGNFNGRNRNIETEIHVRKVDGKWILESMSVI” had a protease stability score of 2.54. “SEEEKRADEFNRRWVHKMQTGDEESLHELIDPNAKLHFEGHDEVGMQRVSHTIVKFFLEIRVHYIHITDARVYDGRLELDTRVDGEFNGKRDTLKIELYVLKVNGVWLLKELRVS” returned a protease stability score of 1. To “SEEEKRAEEWVKLMIHAHLTGDFHLLERFADPHTRVDFNGVENIGMEEVSRWIKEWRRRIDHTEIRLHRIRLQGDKVHVKTELILEYDGRTEFIDSRINLIVINGVLKELRVTLH” belongs 1.38; to “SEEEKRAKKLIEIFMESIETGDWKEIHRMMDPTTRLEQGDYEHHGRDEIRELWLQELLDLGVERIRVKVHHVDVIDGKAHVDVTIHFNGVTQRRHYVIVKIDGRWMIKLVIIR”, 1.81.

“SEEEKRARIASELLFEYLHTGDETLWEELMDPDVRLEINGRLFHGMDSFRHALEIWLKEIRLRDMRVRELHVIGDKIHVNSEDEVEVNGRVVNYESRLDMEKIDGRWRIKRTSIK” registered a protease stability score of 1.19.

For “SEEEKRIRDWARLMEEWRRTGDEEDMSRNLDPNARLILIIDGRNILFHGREEVVRVLEELKERLGFKHEEIKDSRVQGDFLHIHGTLRFDGVETEVRVDTIVINGVVRTLKYHFE”, the protease stability score came to 0.467. Consider “SEEEKRMRDVLRRMEEALKTGDWKFLKDLLDPHTRTVINGRDRHGREFVLEVFSRFGADHSDIEDEDFQGNFVILHLEMEIGDKRIRLRIYIEKINGRWIWRHVIFD”, for which the protease stability score was 2.85. Sequence “SEEEKRMTEDAEHFWRRFLTGDWRTLSRLIDPHVIIHINGVDLHGRHDAHREMEEHAEQFKNIKVHIDHIDVVGDKLHVDVTININGRRFKEEIIIVMFNGRVKELEVRTH” displayed a protease stability score of 1.61. “SEEEKRNHEIAKKFIEAFETGDEDFVNHMADPHVKIIVDGVELHGRDQLHHVRKWLEERYPNVRWHLDDMRVQGNKVFLETTLHVGDKTRKSEIILIVINGRLKEIEMRIR” registered a protease stability score of 1.92. For “SEEEKRWEDWARLMLNWLRTGDEEKISNLMDPNAKSETLIDGRRVEYHGREEVSRFLFELFEEFGIDHLHVRHYDVFDGVFHAHFRVHVGEKERELEVEFHVVDGRITVDTVKFH” the value was 1.5; for “SEEEKSAKIAVDLLLKSQLTGDEQTISELLDPNVRLDVNGREYHGREEYKKWFKHMVERADHMEIRLRHVHFYDGQVHVIGILIIRVNGKELRWEQILVVDKIDGRWLLSEFNFH”, 2.63.

“SEEEKSSHLSIRLWLEMLITGDEDHLEHLADPNVRIEFEGREFHGRERAMHWMRHVSRHMRIEHIQIRRIHYFDGRLQLEGRIDGNINGRNHRFDSELEVTKIDGRWLLTSERIE” registered a protease stability score of 1.24.

Sequence “SEEEKTLERIARLHIQLWLTGDEDTLKKLADPDDRLVVDFENHTWEHHGREEVEKHTKHFLRHLRITHVDHHTVQIINGKAHMHTTVDFQVNGKIVKMHTTIIVVEVNGRLKFVRIEVH” returned a protease stability score of 1.22. With “SEEEKTSHHLLKLIKHDRETGNEKRMEEYIDPHVKLLINGREFHGWEDALHWIREAGIKHFELKHIDIIGEKLRIDGVINYNGQTHRITFHAIKVDGVWLNKEINHG”, the protease stability score was 0.121. On to “SEEEKTVKELVRLILHLLSTGDEEKWLHLADPNMRIEIDFNGKHVELHGREHVHWLLKQFKNARIEIELKHVHVYDGVAEITSILHYHQGDFHWHTESEVMVVVVDGRIKEISFRIR”, for which the protease stability score came to 2.24. For the sequence “SEEEKVIWDIFQDWVRAYHTGNEDLIEHLMDPHVRLDINGKEKHGREWVRYHLHELREHIRTKEYEVHHFDVVDGRAHADYEFHVEYNGREFYRRTHIEIQIVNGKIRVINIRFE”, the protease stability score worked out at 1.43. For “SEEEKWAELALEETLRHLKTGDPRVLLELADPNVKLDVNGREYHGREVFLNFIEEFREKFKNITIEVKDRDVVNGRLITHLRLIVNGKEERVHMRSHKVDGQWVLDSVKIE” the value was 1.9. In turn, “SEEEKWTEIAFTLWREVVETGDEHDVQEMADPNARYKQGDKEYHGREHLLEFMVKFFRHARVDDDDHKHVRTINGRVELQMRSEVTINGKLLITDVELIIVKVNGRWVVESLILG” came in with a protease stability score of 1.43. Consider “SEEEKYARKAIELMKHNYETGDFEKLSRLMDPHVRLHIGDKSHHGMDEFVHWVSQFDHMEMNVHDVRVQGDKIEIIGHLVVRIDGRERRTETYIHLHKFDGQWIVHTIEVR”, for which the protease stability score was determined as 1.34. For “SEEEKYFEHWLKILLQNMHTGNEENLKRLADPTYRLHIGDKNFIGREMFLDSMRRIDHFDDAKLKSIETYGDYVHAEIDHDGRVDGRKIRVNTILLTLKVDGRWIVHSFKIE”, the protease stability score was determined as 0.827. “SEEENEAKSWLEYVIRLLETGDEDSLRKLMDPHVRLIQGDKEFHGRELVTDIISEHIRKVKNVRIRIDDIKFIGEKVYLHGTLEYGDKKHELHLITDKVNGRWLLRSIELR” gave a protease stability score of 2.56. Turning to “SEEENILEEMLKIFYESSRTGNEKTMQELFDPHARIEFEGVENIGMELAMRLTTHWRLQTVHIKDVRVIDGQIHMDGEERGVINGQEIRTEVDIISIKIDGRWLFHSKQIN”, the protease stability score came to 0.369.

“SEEENISKHLADLMFRAIFTGDWQELSRLLDPNARLRVDGVIHHGRETSVEFLERMFRTLGIDHYRVRHVNVQGEKVDIHSEVEYDGRKIDTKIHLVVVNGKVKSVDVRVD”: the protease stability score stood at 1.97. Turning to “SEEEQDIKHFLELIERTHHTGDEKLFRDLFDPNVRLHVGDKNMHGREKALERWRLLGYEIKHLRWRDFRIFDGRVTAHGEMEGQVNGQKIKRDVEIVLVKIDGQWFIEEERVR”, the protease stability score came out at 1.57.

Regarding “SEEEQEAIENLHQYIEAIKTGDEDKLRDLFDPNAIIHFDGREIHGRHVFLKKLRHLWLDLKHFHIQHVEPYNGRVEIHGFQHTSVDIDGVRSRRDEHVLIEIIKINGKWKIKRIEWI”, the protease stability score is 1.68. Sequence “SEEEQEFRLILKEHLDKLETGDEDDLHRLMDPNVRIEIGDKEMHGREHATRFFRELRVEHVHLESYELQGEKVNLHGRMIGDINGKKVDRTVHIFLLKVNGRWIIHSWEVV” showed a protease stability score of 2.14. To “SEEEQELYRTAKLMLESMTTGNEELNKRLADPNVRIHWNGVENHGWRIFRENLEELRIHLKDWRFRRFDLYNGVALLDIEVQIDIEIGDKRIEYETQTILLLFVVNGRIKSISMRIL” belongs 1.07; to “SEEEQFFRLALELFRQVLQTGDEDRLRELVDPNAKHIINGVELHGRSVLEEFLKRYKNLRIHDVEIKDIRVFDGKLELHGIEDGIIGDKRDERRWHLISEKVDGRWIMHEIQID”, 1.7; to “SEEEQHAKHMSHLISHVLKTGDEERWKELMDPHTRLIVGDKEFHGREALHELKRRVDHMKDVLIHSVEVQGNKADFDVEVHVKVDGRHERLKMRWIVDKVNGRWVQSEIIIH”, 1.65.

On to “SEEEQHFRELLHHILENMYTGDWRSLEKNADPHARLFYYQGDKYELYIGMHEWRRLLHHMHERFRNARFQIDEWHVQGDYFKIVESLDYGDKHIDIRVHIQYVNGRLKEMHIHIH”, for which the protease stability score is 1.24. Sequence “SEEEQHLEKMAEDLLHFILTGDEEAMRKMADPTVRLHLHIGDKEERYHGRRDVVRWFHEWVKKVKGMTIEIKRVKVFDGRIFVDGILEINGVKVRVHLITDVIDGKLTRTEERIE” gave a protease stability score of 1.49. Regarding “SEEEQKLRNMAKLTFKDLITGDEEHFEKLADPHTRFNVGNYERHGMRLHLEWYLEWLTRIKGLKLRLELHDVRVVDGRAISDTTLDVHIGDKHIHQDIKLLLVIVDGRIKELEIRFV”, the protease stability score was 1.22. Take “SEEEQLALEIARRLVRSILTGDEHEIHRLMDPHVRTNWNGQELVGREEWDRFNHEMRIHELRIREFDVEVFNGRVESRFRTETRMTFDGREVNEETKLIVILDKVDGKWHLRHVEFRIH”: the protease stability score is 0.651. For “SEEEQLIRLALEWELHSEETGDEELVRENADPHVRLEINGVEVIGMELAVKILFELKEDMGIKHIELKSVDTQGDKLNIHSKYHVNGRHIDVIIISKKVNGRWRMKRIIVTIR” the value was 2.46. For the sequence “SEEEQLVQSAIEITVEALQTGDEHKIREMLDPHVKVRINGQDTHGWEVMEVFMKELGIKHIRVHIEHVNVQGEKVEVKGRVIINFNGRHYEREHWIIIFKIDGRWVNDSIEYI”, the protease stability score stood at 2.12. As to “SEEEQRKEDFLRWFHKALLTGDEEVLLKMADPNVRADINGVDIHGWKEFRQTTHDLRREIRIRDFEVKDEKLVGDKLHVDSSVDGEFDGRRHELKTHLIFLKVDGKWFFKEIRIK”, the protease stability score came out at 1.34. Sequence “SEEEQRQHEFMILWLEYFRTGNEEELLELIDPNVLLVMDINGRNELNHGRELWHEFMNRFWEKIKNATFIVHDKRVINGRIHMDGRLDINGREYTVHLHIEVINGVTKRFEIRIR” gave a protease stability score of 1.68. For the sequence “SEEEQSARKVIEDLIRDLVTGDEKSLRRLMDPHVRFDIGDKELIGREEVLEFWRHIRIHDIKLEDVRLIDGRATVEGKLNGEINGVHHRLDEHIFIYKVDGRWVVHEIRII”, the protease stability score was 1.53. As for “SEEERATEYVLSMLLHLLRTGDEDALFEMADPRYRFIYGEKEKVGRHVIHEFITHLRIDDFRLRRLEIQGDKIITDGEMYGTINGQHETRRVILIMRKINGRWFLESIEIR”, the protease stability score was 1.7.

On to “SEEERDAEENIRLYEELWRTGDFDIFKHLADPNVRLHINGRDVHGRENVSRLISEWRDEDIILRHFTVIDGRIEVHSEFHGQVDGQRRNTRIHIHLRKINGQWRLTEVKYE”, for which the protease stability score amounted to 1.12. Turning to “SEEERDAHEAWRLILETNLTGDEDFSANLMDPDVRITINGRHLHGRELVLRFLNEWRIEFHRVEIKDYEVQGDYVIIIGHMDGILKVDGKEIRFTSDVSIISVKVNGRWLIREIHIK”, the protease stability score was determined as 2.7.

Regarding “SEEERDAKEAVHLLLDMIDTGDFERITKYMDPNTRSRVGDKNDHGRHWLRHRRRHAGHDNIHVHLTRVDIFDGVVQINGRLDVDGKEIEVHWFIRKINGRWIVEEVHIQ”, the protease stability score is 0.367. “SEEERDARIAIEIMLRLLHTGDEESMHQLADPDVRSDVGDKELHGWKLFVDVITEMGIDHVELEHLHTQGDKVHIHVRSFFNGREYLVNLHVRKVDGKWYVEEMKISHH”: the protease stability score was determined as 2.45. Turning to “SEEERDIRHSIEMLFYYFETGDWREWERLADPRARLIIGEKEHHGREELSRSLKELLDRLGVDHYEIKDKRSEIIDGRVNLHVRGHLHVNGRNQHVIVIMVAIKIDGRWLLESLEIRLH”, the protease stability score worked out at 1.3.
